According to publication doi:10.1101/2021.02.22.432209:

Target: GST-PreScission-p62 FIR 4P (human) (UniProt Q13501)
Assay: SPR

Question: “LC3B (1-125), His8-TEV-LC3B (from UniProt Q9GZQ8 1-120) (natural protein)” was tested. Which KD estimated from the kinetics of the sensorgrams did it give?
Answer: 80 nM

Question: What about the half life of the same substance?
Answer: 20 min
